Measurements from the supplement of paper PMC10724198.
± gives the standard deviation of the averaged measurements.

Test system: Saccharomyces cerevisiae
Assay: protein stability index of tFT-peptide fusion (C-terminal peptide) (PSI (0-1 scale)); higher = more stable (slower turnover)
Settings: temperature: 30 C
Description: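 MPS profiling in S. cerevisiae of the yeast C-terminome library: the last 12 aa of each annotated ORF are fused to the C-terminus of a sfGFP-mCherry timer, after a GGGS linker. Cells are FACS-sorted into 8 mCherry/sfGFP bins and deep-sequenced. PSI runs from 0 (unstable) to 1 (stable); wild type and das1Δ backgrounds, two technical replicates each.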

[1] = genetic background: das1 deletion

Row | Sequence | protein stability index [1] | protein stability index (genetic background: wild type)
1 | HAKGSGNTMNRG [TAP42 C-terminal 12 aa] | 0.691 ± 0.029 | 0.664 ± 0.015
2 | SRSGPDSTNIKL [MPP10 C-terminal 12 aa] | 0.688 ± 0.011 | 0.667 ± 0.0034
3 | VAEKIPENETTH [ISW1 C-terminal 12 aa] | 0.6915 ± 0.0016 | 0.679 ± 0.031
4 | SRLFSEEKSSVH [YJL150W C-terminal 12 aa] | 0.7239 ± 0.0066 | 0.694 ± 0.024
5 | RSTAQRGGYSAV [ATG27 C-terminal 12 aa] | 0.708 ± 0.0086 | 0.679 ± 0.025
6 | DLIDDKTNRGRR [PRP2 C-terminal 12 aa] | 0.696 ± 0.029 | 0.697 ± 0.023
7 | PNAIRGIKAKKA [COX7 C-terminal 12 aa] | 0.723 ± 0.011 | 0.675 ± 0.046
8 | RRHYSNEDSSFL [APC9 C-terminal 12 aa] | 0.7169 ± 0.0022 | 0.689 ± 0.036
9 | LMETSKDVDSHP [DMA2 C-terminal 12 aa] | 0.7 ± 0.01 | 0.729 ± 0.0096
10 | DSNTGGIIASIF [YKL104W-A C-terminal 12 aa] | 0.702 ± 0.027 | 0.696 ± 0.027
11 | LITTRTVHRSLD [YEL076C-A C-terminal 12 aa] | 0.6963 ± 0.0014 | 0.6572 ± 0.0041
12 | LQPLIDLDIDNK [ICS2 C-terminal 12 aa] | 0.699 ± 0.026 | 0.702 ± 0.041
13 | NCEPIATTFRAN [MGL2 C-terminal 12 aa] | 0.7086 ± 0.00098 | 0.681 ± 0.018
14 | MNKKHHKPIPFD [RRD2 C-terminal 12 aa] | 0.762 ± 0.027 | 0.697 ± 0.0073
15 | AAISFKEAARTD [HYP2 C-terminal 12 aa] | 0.725 ± 0.019 | 0.725 ± 0.07
16 | SIINPSSNGCNK [YNL235C C-terminal 12 aa] | 0.702 ± 0.028 | 0.615 ± 0.018
17 | KCVNCGHRWKEN [RPC11 C-terminal 12 aa] | 0.708 ± 0.012 | 0.616 ± 0.02
18 | FSNLLWFDQNFA [STB4 C-terminal 12 aa] | 0.742 ± 0.014 | 0.786 ± 0.079
19 | VVLSYSMVGSVM [MAY24 C-terminal 12 aa] | 0.4645 ± 0.0021 | 0.474 ± 0.026
20 | KDINLSEGNENE [URA8 C-terminal 12 aa] | 0.6774 ± 0.005 | 0.666 ± 0.067
21 | ASREREKRRQSE [VAN1 C-terminal 12 aa] | 0.724 ± 0.0075 | 0.76362 ± 0.00071

Row | Sequence | protein stability index [1] | protein stability index (genetic background: wild type)
22 | IEELTDTLNSTI [PEX29 C-terminal 12 aa] | 0.7059 ± 0.0039 | 0.698 ± 0.024
23 | QTLAPVPYETFI [RPL21A C-terminal 12 aa] | 0.718 ± 0.01 | 0.728 ± 0.013
24 | QQSESLPQQTTA [PIL1 C-terminal 12 aa] | 0.7046 ± 0.0038 | 0.737 ± 0.049
25 | SIFSYCIIYFIS [YDR524C-A C-terminal 12 aa] | 0.222 ± 0.013 | 0.111 ± 0.02
26 | KVESSDCSFEFA [VID24 C-terminal 12 aa] | 0.6988 ± 0.0069 | 0.696 ± 0.011
27 | AQLLAYLMHKSN [LPL1 C-terminal 12 aa] | 0.714 ± 0.013 | 0.252 ± 0.013
28 | NMEKFVRKCWKD [MKK1 C-terminal 12 aa] | 0.691 ± 0.059 | 0.73796 ± 0.00058
29 | DFNSKSKKKNDK [MIN6 C-terminal 12 aa] | 0.697 ± 0.024 | 0.6535 ± 0.0044
30 | GAAVGGALAFLI [DDR2 C-terminal 12 aa] | 0.702 ± 0.02 | 0.677 ± 0.0076
31 | AIRRGLTKKNEK [GDE1 C-terminal 12 aa] | 0.72 ± 0.013 | 0.65687 ± 0.00059
32 | EKGIFAGDINSD [COX12 C-terminal 12 aa] | 0.7005 ± 0.0047 | 0.726 ± 0.029
33 | TRSSGDDQVFVF [PGA3 C-terminal 12 aa] | 0.707 ± 0.0082 | 0.707 ± 0.012
34 | CKTLNYARPQSN [BNA1 C-terminal 12 aa] | 0.6906 ± 0.0025 | 0.727 ± 0.031
35 | VDTILDEDFLLR [APC11 C-terminal 12 aa] | 0.715 ± 0.016 | 0.712 ± 0.013
36 | LIMELAVNSQSN [SNF1 C-terminal 12 aa] | 0.681 ± 0.034 | 0.691 ± 0.027
37 | NTLLSPSRKDNS [MVB12 C-terminal 12 aa] | 0.705 ± 0.0098 | 0.698 ± 0.034
38 | EDKEIVDGKVLK [TEF4 C-terminal 12 aa] | 0.663 ± 0.016 | 0.674 ± 0.023
39 | FADTRPFDEIYR [ATP23 C-terminal 12 aa] | 0.73 ± 0.00073 | 0.727 ± 0.063
40 | DNTTKHSSNVHT [YER079W C-terminal 12 aa] | 0.668 ± 0.014 | 0.667 ± 0.0093
41 | ILDMFAKRWILS [IZH3 C-terminal 12 aa] | 0.697 ± 0.015 | 0.552 ± 0.043
42 | PARESMLHKEIK [ADE12 C-terminal 12 aa] | 0.745 ± 0.011 | 0.668 ± 0.011

Row | Sequence | protein stability index [1] | protein stability index (genetic background: wild type)
43 | VMLFSSNHQALG [MAG2 C-terminal 12 aa] | 0.704 ± 0.014 | 0.693 ± 0.014
44 | GSGDEPDSKRRK [YCR051W C-terminal 12 aa] | 0.693 ± 0.044 | 0.666 ± 0.037
45 | RSIKRPELGLRV [STT3 C-terminal 12 aa] | 0.6814 ± 0.0017 | 0.6862 ± 0.0065
46 | YKLFKFLTRERS [BNA4 C-terminal 12 aa] | 0.7081 ± 0.0051 | 0.657 ± 0.018
47 | YLEAFQWLSQYI [SAR1 C-terminal 12 aa] | 0.7969 ± 0.0076 | 0.7631 ± 0.0025
48 | RERALKVYKDAM [PHR1 C-terminal 12 aa] | 0.6824 ± 0.004 | 0.657 ± 0.0079
49 | QFWKNTPKVEQK [HOC1 C-terminal 12 aa] | 0.71 ± 0.024 | 0.695 ± 0.019
50 | FLFSCMLYKIDP [YML089C C-terminal 12 aa] | 0.669 ± 0.027 | 0.664 ± 0.034
51 | TQEMENTKLAES [GIS1 C-terminal 12 aa] | 0.692 ± 0.01 | 0.757 ± 0.0079
52 | VKDIHGRIPEML [AXL2 C-terminal 12 aa] | 0.6952 ± 0.0058 | 0.694 ± 0.015
53 | NAKSKVFSIENN [LSG1 C-terminal 12 aa] | 0.681 ± 0.039 | 0.678 ± 0.015
54 | LTYNTSCQRRQK [YOR161W-A C-terminal 12 aa] | 0.715 ± 0.0089 | 0.717 ± 0.072
55 | LCKEELKYQAIQ [YMR099C C-terminal 12 aa] | 0.701 ± 0.037 | 0.6649 ± 0.0029
56 | DNTKESKDVKMN [RTT102 C-terminal 12 aa] | 0.6878 ± 0.004 | 0.673 ± 0.081
57 | EGWNSDNVYKLS [CYC2 C-terminal 12 aa] | 0.7213 ± 0.0026 | 0.598 ± 0.0034
58 | GEDPYMDLMKEF [TPK3 C-terminal 12 aa] | 0.745 ± 0.013 | 0.733 ± 0.036
59 | VRVPKKSKKLKK [PDR10 C-terminal 12 aa] | 0.7169 ± 0.0069 | 0.705 ± 0.012
60 | RQCEDTNFGFKI [YDL242W C-terminal 12 aa] | 0.6949 ± 0.0057 | 0.688 ± 0.039
61 | ENAHMQSAESCN [YLR236C C-terminal 12 aa] | 0.682 ± 0.011 | 0.717 ± 0.074
62 | AFKKAQAEKSKK [NOP12 C-terminal 12 aa] | 0.699 ± 0.054 | 0.73 ± 0.085
63 | EMLGDKVNKKGI [SOK1 C-terminal 12 aa] | 0.727 ± 0.0085 | 0.67 ± 0.012

Row | Sequence | protein stability index [1] | protein stability index (genetic background: wild type)
64 | PIRGVTGGVYKW [MRPL22 C-terminal 12 aa] | 0.71 ± 0.012 | 0.702 ± 0.02
65 | FIENVLKKRNMK [LIP5 C-terminal 12 aa] | 0.7195 ± 0.0041 | 0.7 ± 0.041
66 | WKKFLKFSKGSD [HXT17 C-terminal 12 aa] | 0.696 ± 0.0084 | 0.703 ± 0.099
67 | SSIFVRVYKFWC [BAP3 C-terminal 12 aa] | 0.698 ± 0.018 | 0.716 ± 0.096
68 | YNSELVATKDIQ [PNT1 C-terminal 12 aa] | 0.703 ± 0.012 | 0.7242 ± 0.0066
69 | EHRMLKLILNSG [NTO1 C-terminal 12 aa] | 0.694 ± 0.017 | 0.644 ± 0.013
70 | RDLLRDDKVALI [SLD5 C-terminal 12 aa] | 0.715 ± 0.023 | 0.6977 ± 0.0027
71 | AVIGVYGEGQFI [ATG33 C-terminal 12 aa] | 0.6986 ± 0.0067 | 0.693 ± 0.049
72 | KYGIYLKEKTVA [LYS9 C-terminal 12 aa] | 0.663 ± 0.013 | 0.4895 ± 0.0018
73 | EVLEVAEKFKEE [DOT5 C-terminal 12 aa] | 0.696 ± 0.011 | 0.683 ± 0.018
74 | EELLNQPPEEQI [GPX1 C-terminal 12 aa] | 0.712 ± 0.027 | 0.766 ± 0.093
75 | LYVCIYISAFIK [FYV12 C-terminal 12 aa] | 0.137 ± 0.019 | 0.143 ± 0.0053
76 | HLENELKDQQEL [ATM1 C-terminal 12 aa] | 0.718 ± 0.0099 | 0.715 ± 0.017
77 | AYSLQEGSVVAI [SIF2 C-terminal 12 aa] | 0.7139 ± 0.0064 | 0.696 ± 0.047
78 | CVVGTLGSDLKS [YPR150W C-terminal 12 aa] | 0.7093 ± 0.0042 | 0.697 ± 0.014
79 | NIIIIILYVYIH [MOR1 C-terminal 12 aa] | 0.227 ± 0.0036 | 0.228 ± 0.025
80 | LKKQIFEKVQKE [MET4 C-terminal 12 aa] | 0.701 ± 0.02 | 0.635 ± 0.022
81 | LIQFLEPSKRVA [YPT35 C-terminal 12 aa] | 0.72 ± 0.037 | 0.722 ± 0.042
82 | GGPFPYYFNTFC [YKL169C C-terminal 12 aa] | 0.704 ± 0.028 | 0.53 ± 0.027
